Experimental data from patent US6492344B1, “Syndecan enhancer element and syndecan stimulation of cellular differentiation” (Biotie Therapies Corp., priority 1993, dated 2002).
“Also recorded” adds a separate entry of the source.

Legend:
3T3NIH cells = assay: 125-IdU incorporation (DNA synthesis) assay in 3T3NIH cells; format: cell-based, mouse; conditions: pFiRE transfected 3T3NIH cells; 10 ng/ml growth factor (2 ng/ml TGF-β) or 5% FCS
Excerpt: Effect of Various Growth Factors on Enhancer Activation in NIH3T3 Cells. Plasmid pFiRE was transfected into 3T3NIH cells as described, supra. The cells were starved in DMEM medium supplemented with 5% fetal calf serum to about 70% confluence. Fetal calf serum was then replaced with 2% carboxy-methyl-Sephadex eluted fetal calf serum (CMS) 12 hrs before adding the growth factors. Various growth factors in the same medium, 5% fetal calf serum (FCS) supplemented medium or a control containing the medium, without any added growth factors were incubated with the transfected cells for 2 days, and CAT activity was measured. The effect of 10 ng/ml of FGF-2, FGF-1, FGF-4, FGF-7 (KGF), EGF, IGF1, TGFα, IFNγ, and PDGF and 2 ng/ml TGF-β were tested. The human recombinant growth factors were purchased from Peprotech (FGF-1, -2, and -7), Boehringer (FGF-2) or from Calbiochem (PDGF) TGF-β was purchased from Sigma. The effect of the added growth factors and FCS on DNA synthesis was also tested by a 125-IdU incorporation assay. This cell proliferation assay was carried out by incubating cells for 4-6 hrs with 0.25 μCi/ml 5-[^125I]iodo-2′-deoxyuridine (IdU, Amersham), washed several times with PBS and solubilized in 1 M NaOH. Radioactivity was measured using a gamma counter (Wallac).

[1] = test system: FGF-inducible Response Element (FiRE); assay: pFiRE CAT reporter activation by growth factors in 3T3NIH cells; format: cell-based, mouse; conditions: pFiRE transfected 3T3NIH cells; 10 ng/ml growth factor (2 ng/ml TGF-β) or 5% FCS, 2 days
Description: Each of these plasmids was transiently transfected into 3T3NIH cells, using the calcium phosphate precipitation method (Chen and Okayama, Mol. Cell Biol. 7:2745-2752 (1987)) as follows. For transient transfections NIH3T3 cells were plated at equal density on six-well plates (Falcon) two days before transfection. Plasmid DNA was transfected into cells by calcium phosphate method (Chen and Okayama, Mol. Cell Biol. 7:2745-2752 (1987)). A β-galactosidase expressing plasmid (pSV-β-galactosidase, Promega) was co-transfected with CAT constructs to monitor transfection efficiencies. Three parallel transfections were used in every assay. […] CAT activities were measured by liquid scintillation and β-galactosidase activities spectrophotometrically at 420 nm as described by Vihinen et al., J. Biol. Chem 268:17261-17269 (1993)). […]
For the gene expression analysis the fragments of the syndecan-1 upstream region were subcloned from mouse genomic clones into the XbaI site of the pCATProm vector in which a mouse syndecan-1 promoter region (−1310 to +140) was fused to the CAT reporter gene (Vihinen et al., J. Biol. Chem. 271:12532-12541 (1996)). […] These constructs were then used to transient transfect NIH3T3 cells as described supra, and CAT activity was measured.
Effect of Various Growth Factors on Enhancer Activation in NIH3T3 Cells. […] Radioactivity was measured using a gamma counter (Wallac).

syndecan-1 mRNA = assay: Syndecan-1 mRNA expression in MCA3D keratinocytes; format: cell-based; conditions: MCA3D mouse keratinocytes
[2] = test system: FGF-inducible Response Element (FiRE); assay: FiRE / Syn Prom CAT reporter in MCA3D keratinocytes; format: cell-based; conditions: MCA3D mouse keratinocytes transfected with FiRE construct
Description: The cells used for proximal promoter constructs were 3T3 NIH, S115 (either hormone-treated or not) and nMuMG cells. For enhancer constructs we used 3T3 NIH cells grown in 2% CMS medium and MCA 3D cells grown in Ham's medium. 3T3 NIH cells were also used to test the effect of growth factors in 2% CMS medium with 10 ng/ml FGF-2 and 2ng/ml TGFβ-1. MCA 3D cells were used to test the effect of 10 ng/ml KGF.
FiRE is Induced Selectively by FGF-7 in Keratinocytes. The ability of FiRE to enhance transcription was tested in the mouse keratinocyte cell line MCA3D (Kuliz-Martin et al., Carcinogenesis 4:1367-1377 (1983)). MCA3D cells were transfected as described supra for mouse NIH3T3 cells. Following transfection, the cells were treated with fetal calf serum, PDGF, FGF-1, FGF-2, and FGF-7 as described supra for the NIH3T3 cells.

| Molecule | DNA synthesis / cell proliferation (125-IdU incorporation) (3T3NIH cells) | FiRE enhancer activation (CAT reporter activity) [1] | syndecan-1 mRNA expression (syndecan-1 mRNA) | FiRE activation [2] |
| --- | --- | --- | --- | --- |
| FGF-7: Keratinocyte growth factor (FGF-7 or KGF) (protein, UniProt P21781 32-194, looked up) Fibroblast growth factor 7: CNDMTPEQMATNVNCSSPERHTRSYDYMEGGDIRVRRLFCRTQWYLRIDKRGKVKGTQEMKNNYNIMEIRTVAVGIVAIKGVESEFYLAMNKEGKLYAKKECNEDCNFKELILENHYNTYASAKWTHNGGEMFVALNQKGIPVRGKKTKKEQKTAHFLPMAIT | significant increase in DNA synthesis | did not activate the enhancer; also recorded: no significant enhancer activation; also recorded: no effect | strongly induced | strongly activated FiRE |
| FGF-4: growth factor, FGF family member (protein, UniProt P08620 31-206, looked up) Fibroblast growth factor 4: APTAPNGTLEAELERRWESLVALSLARLPVAAQPKEAAVQSGAGDYLLGIKRLRRLYCNVGIGFHLQALPDGRIGGAHADTRDSLLELSPVERGVVSIFGVASRFFVAMSSKGKLYGSPFFTDECTFKEILLPNNYNAYESYKYPGMFIALSKNGKTKKGNRVSPTMKVTHFLPRL | – | lower effect | – | – |
